Results on three molecules are retold here after US20240181075A1 (EMERGENCE THERAPEUTICS, published 2024).

Assay [1] deals with T1, Nectin-4 extracellular domain Fc fusion recombinant protein (Nec4-VCC) (human, UniProt Q96NY8 32-349).
T1 construct: extracellular domain; also called Nectin-4-VCC-Fc; not shown: Fc part
T1 sequence (looked up): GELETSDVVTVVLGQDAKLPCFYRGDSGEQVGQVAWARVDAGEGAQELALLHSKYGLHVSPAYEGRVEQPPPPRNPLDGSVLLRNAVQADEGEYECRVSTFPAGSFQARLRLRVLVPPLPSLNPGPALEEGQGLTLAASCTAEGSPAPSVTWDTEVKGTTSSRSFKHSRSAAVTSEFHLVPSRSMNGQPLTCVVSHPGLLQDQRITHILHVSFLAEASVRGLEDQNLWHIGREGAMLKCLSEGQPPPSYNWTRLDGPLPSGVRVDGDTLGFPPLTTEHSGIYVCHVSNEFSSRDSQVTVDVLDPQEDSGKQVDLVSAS
Put plainly: statement in the legend of the competition ELISA on coated Nec4-VCC. How it is done:
Competition assay was performed by ELISA. [0435] Ninety-six-wells plates were coated with 5 μg/mL of Nectin-4 extracellular domain Fc fusion recombinant protein (Nec4-VCC) overnight at 4° C.
(§1) One hundred μL of peroxidase substrate was added (One Step ABST, Pierce), and OD was red at 405 nm.

Assay [2] has as its target T2, Nectin-1 extracellular domain Fc fusion recombinant protein (Nec1-VCC) (UniProt Q15223 31-355, limits assumed).
T2 construct: extracellular domain; also called Nectin-1-VCC-Fc; not shown: Fc part
T2 sequence (looked up): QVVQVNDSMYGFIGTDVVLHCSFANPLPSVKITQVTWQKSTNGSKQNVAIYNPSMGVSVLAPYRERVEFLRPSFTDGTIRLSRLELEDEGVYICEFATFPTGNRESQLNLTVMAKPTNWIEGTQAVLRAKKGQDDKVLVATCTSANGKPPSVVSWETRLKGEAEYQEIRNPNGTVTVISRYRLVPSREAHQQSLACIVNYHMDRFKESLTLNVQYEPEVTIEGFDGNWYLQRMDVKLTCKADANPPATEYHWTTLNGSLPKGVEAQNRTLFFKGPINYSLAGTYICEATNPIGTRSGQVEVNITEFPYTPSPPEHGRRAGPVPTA
Put plainly: ELISA, plate coated with Nec1-VCC Fc fusion protein. The procedure: (§2) Detection by ELISA. [0433]
as §1

Assay [3] concerns the target T3, Nectin-4 IgV-like domain Fc fusion recombinant protein (Nec4-V) (human, UniProt Q96NY8 32-146, limits assumed).
T3 construct: domain: IgV-like domain; also called Nectin-4-V-Fc; not shown: Fc part
T3 sequence (looked up): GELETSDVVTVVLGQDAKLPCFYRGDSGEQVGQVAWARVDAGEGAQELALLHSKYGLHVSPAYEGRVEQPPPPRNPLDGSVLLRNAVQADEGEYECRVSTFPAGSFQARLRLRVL
Put plainly: ELISA, plate coated with Nec4-V Fc fusion, peroxidase-conjugated antibody. The procedure: as §2, §1
(In general: ELISA stands for enzyme-linked immunosorbent assay.)

Assay [4] deals with T1, Nectin-4 extracellular domain Fc fusion …. Put plainly: ELISA, plate coated with Nec4-VCC Fc fusion, peroxidase-conjugated antibody. How it is done:
as §2, §1

The target of assay [5] is T4, human Nectin-4 on cells (CHO cells transfected with human Nectin-4 cDNA); SUM190 tumor cells; normal … (human, UniProt Q96NY8 32-510).
T4 construct: whole, on cells; The cell type that carried it is named under assay in each row; also called PVRL4; PRR4
T4 sequence (looked up): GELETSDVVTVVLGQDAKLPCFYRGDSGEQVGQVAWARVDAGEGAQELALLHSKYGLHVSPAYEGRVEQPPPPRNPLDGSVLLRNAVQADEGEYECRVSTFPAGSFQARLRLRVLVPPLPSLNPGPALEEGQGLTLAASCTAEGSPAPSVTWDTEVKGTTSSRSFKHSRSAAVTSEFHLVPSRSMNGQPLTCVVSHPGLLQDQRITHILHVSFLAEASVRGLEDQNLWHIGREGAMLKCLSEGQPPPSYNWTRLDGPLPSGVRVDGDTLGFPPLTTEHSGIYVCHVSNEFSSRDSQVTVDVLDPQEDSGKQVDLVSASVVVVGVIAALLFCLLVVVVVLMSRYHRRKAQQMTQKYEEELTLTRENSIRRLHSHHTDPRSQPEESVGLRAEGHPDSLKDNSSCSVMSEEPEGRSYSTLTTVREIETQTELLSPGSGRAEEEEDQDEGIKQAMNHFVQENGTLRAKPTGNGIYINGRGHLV
Put plainly: flow cytometry on normal differentiated human keratinocytes (NHEK), compared with SUM190 tumor cells. (In general: A flow cytometer gives signals particle by particle.)

The target in assay [6] is T5, human Nectin-4 with N-terminal Flag epitope tag, expressed on transfected MDA-MB231 cells (human, UniProt Q96NY8 32-510).
T5 construct: whole, on cells; also called PVRL4 cDNA in p3XFLR4.C1
T5 sequence (looked up): T4 sequence (looked up)
Put plainly: flow cytometry on MDA-MB231 cells transfected with N-terminal Flag-tagged Nectin-4, anti-human Fc PE detection. The text has this:
Detection by flow cytometry. [0431] […] Cells were then stained with phycoerythrin conjugate goat anti human Fc antibody. The normalized mean fluorescence intensity is shown. […] Mean fluorescence intensity is represented.

The target of assay [7] is T4, human Nectin-4 on cells (CHO cells …). Put plainly: flow cytometry on normal differentiated human keratinocytes (NHEK); reference antibody of the comparison.

B1: HA22 (Enfortumab), human monoclonal anti-Nectin-4 antibody (antibody, V domains shown)
VH: EVQLVESGGGLVQPGGSLRLSCAASGFTFSSYNMNWVRQAPGKGLEWVSYISSSSSTIYYADSVKGRFTISRDNAKNSLSLQMNSLRDEDTAVYYCARAYYYGMDVWGQGTTVTVSS
VL: DIQMTQSPSSVSASVGDRVTITCRASQGISGWLAWYQQKPGKAPKFLIYAASTLQSGVPSRFSGSGSGTDFTLTISSLQPEDFATYYCQQANSFPPTFGGGTKVEIK
notes: also called Enfortumab (HA22); HA22 mAb
Turning to B1, the binding result in assay [1] is “binds”.

B2: Ch-15A7.5 (chimeric anti-Nectin-4 monoclonal antibody 15A7.5) (antibody, V domains shown)
VH: EVKLVESGGGLVQPGGSRKLSCAASGFTFSNYGMAWVRQAPGKGPEWVAFISNLAYGINYADTVTGRFTISRENAKNTLYLEMRSLRSEDTAMYYCARGARATGWFAYWGQGTLVTVSA
VL: DIVMTQSQKFMSTSIGDRVSVTCKASQNVDTHVAWYQEKPGQSPKALIYSASYRYSGVPDRFTGSGSGTDFTLTISNVQSEDLADYFCQQYNSYPLTFGGGTKLEIK
notes: also called Ch-15A7.5 mAb; Ch-15A7 mAb
In the case of B2, the binding result in assay [2] is “no binding”; in assay [3], “binds”; in assay [4], “binds”; in assay [5], “binds”; in assay [6] it was “binds”.

B3: Ch-5A12.2 (chimeric anti-Nectin-4 monoclonal antibody 5A12.2) (antibody, V domains shown)
VH: QIQLQQSGAELVKPGASVTLSCKTSGFTFNSMYISWLKQKPGQSLEWIAWIYAGTGGTRFNQKFTGKVQLTVDTSSSTAYMQFSSLTTDDSAIYYCAIRSGFVPMDYWGQGTSVTVSS
VL: SIVMTQTPKFLLVSAGDRVTITCKASQSVSNDVAWYQQKPGQSPKLLIYYASNRYTGVPDRFTGSGYGTDFTFTISTVQAEDLAVYFCQQDYSSPWTFGGGTKLEIK
notes: also called Ch-5A12.2 mAb; 5A12.2 mAb
Take B3: the binding result in assay [7] and in assay [6] was “binds” in each case.
